Test results: IntAct's records for PubMed 17005671

B1: Tyrosine-protein kinase-interacting protein (Saimiriine herpesvirus 2 (strain 488) (SaHV-2)), P22575 (parent)
chain: MANEGEEIELTEFPETEKERKDEEKLSSCSEETTNTSSSSGSDHVPVPIEVNVIIQNSSRTEDELQNSKEIELTGFQGKLSSCSEETTAPSSSYSSKQASVFIEENGDNETSTYRPQNVLTNLNSLYTTFEDARAQGKGMVRHKSEDLQSFLEKYPPDFRKPKRDLSATWDPGMPTPPLPPRPANLGERQASTVRLHVKESNCKQPRERKANERNIVKDLKRLENKINVIICLVVVILAVLLLVTVLSILHIGMKS

Legend:
[1] = variants of: B1; conditions: with cd4_human CD4, P01730
[2] = variants of: B1; conditions: with lck_human LCK

Row | Variant | effect of a mutation on the interaction [1] | effect of a mutation on the interaction [2]
1 | P183A | decreasing interaction | decreasing interaction
2 | P178A | decreasing interaction | decreasing interaction
3 | P175A | decreasing interaction | decreasing interaction
4 | P180A | decreasing interaction | decreasing interaction
5 | P177A |  | decreasing interaction
